Tests used:
[1] = test system: SK-MEL 28 cells; experiment: Cell cycle analysis by propidium iodide staining and flow cytometry; assay type: cell-based, human; conditions: 100 nM, 48 h
Description: To further assess the affect of SEAM 3 mAb on cell growth, the stage of the cell cycle after treatment with SEAM 3 was determined. In this experiment, the cells were stained with the fluorescent DNA binding dye propidium iodide to characterize cell populations in various stages of the cell cycle and the effects of adding control antibodies, nocodazole (a drug that arrest the cells in mitosis) and SEAM 3.
Approximately 10^5 SK-MEL 28 cells were plated on a 96-well tissue culture plate and allowed to adhere. After 24 h the medium was replaced with one that had either antibody or drug and incubated for a further 48 h. Cells were spun (to collect any cells that may have detached), and fixed in 70% ice-cold methanol (added drop wise) for at least 30 minutes at 4° C. The cells were washed twice with PBS, and to ensure that only DNA was stained, the fixed cells were treated with ribonuclease I (100 μg/ml, source) for 30 minutes at 37° C. Propidium iodide (50 μg/ml) was added and samples were analyzed using a Guava EasyCyte flow cytometer.

[2] = test system: SEAM 3; experiment: Inhibition ELISA of SEAM 3 binding to plate-coated N-Pr NmB PS-dodecylamine; set-up: species or system murine; conditions: dilution required to decrease absorbance at 405 nm by 50%
Chain of SEAM 3 (as listed by the source): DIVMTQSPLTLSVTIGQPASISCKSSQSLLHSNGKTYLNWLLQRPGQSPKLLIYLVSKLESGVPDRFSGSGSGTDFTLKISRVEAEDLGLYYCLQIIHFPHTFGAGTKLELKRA
Chain of SEAM 3 (as listed by the source): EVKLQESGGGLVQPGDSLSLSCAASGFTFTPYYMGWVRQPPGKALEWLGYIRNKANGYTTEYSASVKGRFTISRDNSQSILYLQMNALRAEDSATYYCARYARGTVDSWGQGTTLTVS
Description: The ability of colominic acid and N-Pr NmB PS to inhibit binding of SEAM 3 to in an ELISA was compared to sialidase A-treated colominic acid and N-Pr NmB PS prepared as described above. The wells of microtiter plates (Immulon 2; Dynatech Laboratories, Inc.) were coated with N-Pr NmB PS-dodecylamine (prepared as described in Example 1) in phosphate buffered saline (PBS; pH 7.4). The plates were incubated overnight at 4° C. After washing three times with PBS, the wells were filled with 200 μl of blocking buffer (PBS containing 1% bovine serum albumin [BSA, Sigma] and 0.1% sodium azide; [pH 7.4]) and then incubated for 30-60 min at room temperature to block nonspecific binding sites. The plates were washed three times with PBS buffer. Inhibitors were serially diluted in blocking buffer on the plate in total final volume of 50 μl. SEAM 3 diluted in blocking buffer to a concentration that produced an OD405 nm of 0.5 when developed with substrate was added to the wells in a volume of 50 μl. The plates were covered and incubated overnight at 4° C. […] The absorbance at 405 nm after 30 minutes incubation at ambient temperature was measured using a BioRad Model 550 microtiter plate reader. The relative activity of each sample was compared by determining the dilution required to decrease the absorbance at 405 nm by 50% of the absorbance observed in wells containing SEAM 3 but no inhibitor.

[3] = test system: polysialic acid antigens expressed by the human neuronal cell line CHP-134; conditions: cited from earlier work
[4] = test system: NmB strain M7; experiment: Fluorescence microscopy of SEAM 12 binding to capsule PS on NmB strain M7 grown with N-acyl mannosamine supplements; set-up: species or system Neisseria meningitidis
Text: The trihaloacetylated mannosamine was incorporated into NmB PS by inoculating colonies of NmB strain M7 grown overnight at 37 degrees C. in 5% carbon dioxide on a freshly streaked chocolate agar plate to an OD620 nm of 0.1 in Muller-Hinton broth supplemented with 5 millimolar N-acyl mannosamine For example, N-acetyl, -trichloroacetyl, -trifluoroacetyl mannosamine. Stain M7 contains a transposon the interrupts the gene encoding N-acetyl-D-glucosamine-6-phosphate 2 epimerase (Swartley et al. 1994, J. Bact. 176:1530; Swartley et al. 1996, J. Bact. 178:4052). As a result, the bacteria cannot synthesize capsule PS unless the growth media was supplemented with N-acetyl mannosamine Therefore, the N-acyl content of the capsule PS synthesized in this system can be determined by the N-acyl or mixture of N-acyl mannosamine provided in the growth media. The bacteria were grown at 37 degrees C. […]).
There is no binding of SEAM 12 to M7 without N-acyl mannosamine or with N-trichloroacetyl mannosamine supplement (FIG. 37, panels B and C). […] However, SEAM 12 does bind to the capsule PS containing N-trifluoroacetyl groups (FIG. 37, panel D, shaded gray in the figure) since the trifluoromethyl group is nearly the same size as the methyl group of the N-acetyl derivative.

Molecule: COC(=O)Nc1nc2cc(C(=O)c3cccs3)ccc2[nH]1 [nocodazole, reference compound]
- cells arrested in G2/M phase [1]: approximately 50%

Molecule: poly alpha (2→8) N-acetyl neuraminic acid [colominic acid]
- activity for binding to SEAM 3, fold less than N-Pr NmB PS [2]: approximately 200 fold

B1: SEAM 35: anti-N-Pr NmB PS murine mAb (IgG2a) (antibody, V domains shown)
VH: EVKLEESGGGLVQPGGSLSLSCAASGFTFTDYYLSWVRQPPGKALEWLGFIRNTANGYTTEYSASVKGRFTIARDNSQSILTLQMNALRAEDSATYYCARWSRRAMDYWGQGTSVTVS
VL: DIVMTQSPISMSMSLGERVTLSCKASENVGTYVSWYQQKPEQSPKLLISGASNRYTGVPDRFTGSGSATDFTLTISSVQAEDLADYHCGQSYNYPYTFGGGTKLEIKRA
modifications: mouse
- cross-reactivity with polysialic acid antigens expressed by CHP-134 [3]: greater cross-reactivity

B2: SEAM 12: anti-N-Pr NmB PS murine mAb (IgG2a) (antibody, V domains shown)
VH: QVKLEQSGGGLVRPGNSLKLSCVTSGFTFINYRMHWLRQPPGKRLEWIAVITDNSDNYVVNYAESVKGRFAISRDDSKSSVYLEMNRLREEDTATYFCSRSRRSFFDYWGQGTTLTVS
VL: DIVMTQTTVIMSASPGEKVTMTCSASSSVTYMHWYQQKSRTSPKLWIYDTSKLASGVPGRFSGSGSGNSYALTISSMEPEDVATYYCFQGSGYPLTFGAGTKLGLKRA
modifications: mouse
- SEAM 12 binding to capsule PS ([4]; capsule PS containing N-trifluoroacetyl groups): does bind
- SEAM 12 binding to M7 ([4]; growth media supplemented with N-acetyl mannosamine): binding is indicated by the presence of red fluorescence
- SEAM 12 binding to M7 ([4]; with N-trichloroacetyl mannosamine supplement): no binding
- SEAM 12 binding to M7 ([4]; without N-acyl mannosamine): no binding

Source: patent publication US9872921B2, “DE-N-acetyl sialic acid antigens, antibodies thereto, and methods of use in cancer therapy” (priority 2004, dated 2018)
